# Source: patent US20100215575A1, “Systemic Administration of Chlorotoxin Agents for the Diagnosis and Treatment of Tumors” (TRANSMOLECULAR, INC., priority 2007, published 2010)
# System: D54-MG xenografted human glioma tumors
# Test: Brain tumor targeting after intravenous injection (D54-MG/SCID mouse model)
# Format: in vivo
# Conditions: tail vein injection, measured after 24 hours
# Excerpt: These experiments consisted of five research studies utilizing the […] mouse model.
substance,measurement,value
125I-EGF: 125I-labeled EGF used as a control; EGF receptor is up-regulated in these tumors,Targeting of brain tumor,did not localize to the brain tumors to any appreciable extent
